Tests used:
[1] = molecular target: interferon-induced transmembrane protein 3 (IFITM3), human, untagged (UniProt Q01628); assay: co-immunoprecipitation (anti-HA IP, anti-IFITM3 immunoblot), IFITM3/HA band ratio; settings: mean of two co-IPs from independent transfections
[2] = molecular target: interferon-induced transmembrane protein 3 (IFITM3), human, untagged (UniProt Q01628); assay: proximity ligation assay (anti-IFITM3 and anti-HA, confocal microscopy); settings: HEK293T cells transfected with pCMV-IFITM3 (0.50 μg) and pBJ-97ZANef-HA WT or mutant (0.25 μg); mean of 6 to 12 cells per condition; parent: 20,209
[3] = HEK293T cells cotransfected with pCMV-IFITM3 (0.50 μg) and pBJ-97ZANef-HA WT or mutant (0.25 μg)
[4] = HEK293T cells cotransfected with pCMV-IFITM3 (0.50 μg) and pBJ-97ZA Nef-HA WT or mutant (0.25 μg), parent: 100

UniProt Q01628, sequence (Q01628 whole entry): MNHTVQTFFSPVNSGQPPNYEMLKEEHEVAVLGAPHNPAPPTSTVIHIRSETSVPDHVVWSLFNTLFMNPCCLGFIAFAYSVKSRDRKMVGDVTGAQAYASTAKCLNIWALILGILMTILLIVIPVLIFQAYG

| Substance | percent of parent [1, 3] [%] | response (corrected total cell fluorescence) [2] | percent of parent [1, 4] [%] |
| --- | --- | --- | --- |
| 97ZA013 Nef-HA, wild type (HIV-1 clade C primary isolate) R17A; R19A; R21A; R22A | 16 | 7580 |  |
| 97ZA013 Nef-HA, wild type (HIV-1 clade C primary isolate) G2A | 1 | 3000 |  |
| 97ZA013 Nef-HA, wild type (HIV-1 clade C primary isolate) L165A; L166A | 87 | 12000 |  |
| 97ZA013 Nef-HA, wild type (HIV-1 clade C primary isolate) N163T; C164S |  |  | 217 |
| 97ZA013 Nef-HA, wild type (HIV-1 clade C primary isolate) M20A | 124 | 17200 |  |
| 97ZA013 Nef-HA, wild type (HIV-1 clade C primary isolate) R192F; R193H |  |  | 188 |
| 97ZA013 Nef-HA, wild type (HIV-1 clade C primary isolate) M169V; Q171L |  |  | 244 |
| 97ZA013 Nef-HA, wild type (HIV-1 clade C primary isolate) E153K |  |  | 73 |
| 97ZA013 Nef-HA, wild type (HIV-1 clade C primary isolate) S152D; E153K |  |  | 42 |
